EC50 data for five molecules are collected here from patent EP4722246A1 (Inxmed (Nanjing) Co., Ltd., dated 2024).

As usually defined, the EC50 is the midpoint of the concentration-response curve.

To fix the notation:
B1: 11B7 (antibody, human IgG1, lambda, L234A L235A, V domains shown)
VH: QVQLVQSGGGVVQPGRPLRLSCAASGFNLGSYAMSWVRQAPGKGLEWVSAISGSGGSTYYADSVKGRFTISRDNSKNTLYLQMNSLRAEDTAVYYCAKILGPGNLNYYYYYGMDVWGQGTTVTVSS
VL: SSELTQDPAVSVALGQTVRITCQGDSLRNSYASWYQQKPGQAPVLVIYGNNNRPSGIPDRVSGSRSGNTASLTITGAQAEDEADYYCNSRDSSGNHVVFGGGTELTVLG
notes: Full IgG made in CHO cells, lambda constant region; also called TEM8-11B7
B2: 3A3 (antibody, human IgG1, kappa, L234A L235A, V domains shown)
VH: QVQLVQSGPEVKKPGAPVKISCKTSGYIFDDYGITWVRQAPGQGLEWLGWISTYNGKTSFAQKVQGRLTMTTDISTNTASMELRGLRSDDTALYYCARVFSRYIPFYFDSWGQGTLVTVSS
VL: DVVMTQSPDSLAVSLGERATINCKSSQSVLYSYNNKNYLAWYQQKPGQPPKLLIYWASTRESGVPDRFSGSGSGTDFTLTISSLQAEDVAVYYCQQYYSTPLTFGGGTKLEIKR
notes: Full IgG made in CHO cells: variable regions joined to the IgG heavy chain constant region and the kappa constant region; also called TEM8-3A3
B3: 7E3 (antibody, human IgG1, lambda, L234A L235A, V domains shown)
VH: QVQLVESGGGLVNPGGSLRLSCAVSGFTSSGFSINWVRQAPGKGLEWVSSISGIGDSIFYADSVKGRFTISRDNAKNLVFLQMNSVKAEDTAVYYCVRDKWGWGTYSLFDYWGQGTLVTVSS
VL: QAVLTQPPSASGTPGQRVTISCSGSSSNIASNVVSWYQQLPGTAPKVLIYSNNRRPSGVPDRFSGSKSGASASLAISGLQSDDETHYYCAAWDDSLKGPVFGGGTQLTVLG
notes: Full IgG made in CHO cells, lambda constant region; also called TEM8-7E3
B4: 6A6Q (antibody, human IgG1, lambda, L234A L235A, V domains shown)
VH: EVQLVESGGGVVQPGGSLRLSCAASGFTFDDYAMHWVRQAPGKGLEWVSLISGDGGSTYYADSVKGRFTISRDNSKNSLYLQMNSLKASDTAMYYCARPRWGRYSSSWPFDYWGQGTLVTVSS
VL: QSALTQPASVSGSPGQSITISCTGTSSDVGTYNYVSWYQQHPGKAPKLMIYDVTDRPSGISNRFSGSKSGNTASLTISGLQAEDEGNYYCSSYTSQRSWVFGGGTKLTVLG
notes: Full IgG made in CHO cells, lambda constant region; Variant of 6A6 whose light chain glycosylation site NRS was mutated to QRS; also called TEM8-6A6Q
B5: 3B3 (antibody, human IgG1, kappa, L234A L235A, V domains shown)
VH: EVQLVQSGGGLVKPGGSLRLSCAASGFTFSSYSMNWVRQAPGKGLEWVSSISSSSSYIYYADSVKGRFTISRDNAKNSLYLQMNSLRAEDTAVYYCARVRPPYGMDVWGQGTLVTVSS
VL: NIQMTQSPSSVSASVGDTVTISCRASQGISNWLGWYQQRPGEAPKLLIYAASHLQSGVPSRFSGSGSGTDFVLTITSLQPEDFATYYCQQSNSFPLAFGGGTKLEIKR
notes: Full IgG made in CHO cells, kappa constant region; also called TEM8-3B3

Chain of human TEM8 on CHO-hTEM8 cells (Q9H6X2 33-564): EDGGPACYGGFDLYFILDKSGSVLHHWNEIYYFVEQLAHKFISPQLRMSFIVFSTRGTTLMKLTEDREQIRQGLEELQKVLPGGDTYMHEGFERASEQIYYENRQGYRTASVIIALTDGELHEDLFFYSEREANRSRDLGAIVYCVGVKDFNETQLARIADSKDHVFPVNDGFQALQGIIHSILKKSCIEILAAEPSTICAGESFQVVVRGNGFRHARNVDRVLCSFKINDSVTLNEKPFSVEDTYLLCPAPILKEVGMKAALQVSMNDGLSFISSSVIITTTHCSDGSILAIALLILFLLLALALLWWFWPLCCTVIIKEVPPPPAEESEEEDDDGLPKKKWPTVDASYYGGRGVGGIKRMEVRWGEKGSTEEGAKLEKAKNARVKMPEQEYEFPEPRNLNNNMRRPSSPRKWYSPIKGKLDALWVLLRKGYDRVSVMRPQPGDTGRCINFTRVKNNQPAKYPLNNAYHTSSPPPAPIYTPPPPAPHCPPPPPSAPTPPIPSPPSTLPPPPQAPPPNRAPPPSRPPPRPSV

The first assay has as its target human TEM8 on CHO-hTEM8 cells (human, UniProt Q9H6X2 33-564). In words: FACS on CHO-hTEM8 cells.
As for B1, the half-maximal effective concentration (EC50) was found to be 0.85 nM. In other words, the sub-nanomolar range.
On the same count and under the same terms, as for B2, the figure is 0.71 nM; as for B3, 0.75 nM; as for B4, 0.63 nM.
Still for that read-out and setting: as for B5, the figure is 1.51 nM.

For the next assay, the target named is T1, mouse TEM8 on CHO-mTEM8 cells (mouse, UniProt Q9CZ52 31-562).
T1 construct: also called murine TEM8
T1 sequence (Q9CZ52 31-562): as the sequence (Q9H6X2 33-564) above, with K40R, R104S, S241A, I297V, A327V, N458S, A468T, T471P, P493A counted along it
Kind of assay: FACS on CHO-mTEM8 cells.
As to B1, the EC50 amounted to 1.21 nM.
Same read-out and setting: as for B2, the figure is 1.48 nM; as for B3, 1.41 nM.
Still for that read-out and setting: as for B4, the figure is 1.16 nM.
As for B5, the EC50 stood at 2.14 nM.
